Consider eight molecules from article PMC3958441, “Isl1 and Pou4f2 Form a Complex to Regulate Target Genes in Developing Retinal Ganglion Cells” (PLoS ONE, 2014).

Data set [1] addresses T1, Pou4f2D5;Isl1 (mouse;mouse, UniProt Q63934;P61372 125-411;1-349, |).
T1 sequence 1: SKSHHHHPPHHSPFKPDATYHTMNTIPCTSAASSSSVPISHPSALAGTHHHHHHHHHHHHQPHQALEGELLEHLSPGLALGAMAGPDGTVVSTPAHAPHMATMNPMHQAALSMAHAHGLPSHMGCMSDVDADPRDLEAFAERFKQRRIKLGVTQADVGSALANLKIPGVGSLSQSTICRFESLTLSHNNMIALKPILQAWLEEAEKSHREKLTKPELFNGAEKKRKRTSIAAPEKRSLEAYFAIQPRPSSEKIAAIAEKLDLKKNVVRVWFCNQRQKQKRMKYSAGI
T1 sequence 2: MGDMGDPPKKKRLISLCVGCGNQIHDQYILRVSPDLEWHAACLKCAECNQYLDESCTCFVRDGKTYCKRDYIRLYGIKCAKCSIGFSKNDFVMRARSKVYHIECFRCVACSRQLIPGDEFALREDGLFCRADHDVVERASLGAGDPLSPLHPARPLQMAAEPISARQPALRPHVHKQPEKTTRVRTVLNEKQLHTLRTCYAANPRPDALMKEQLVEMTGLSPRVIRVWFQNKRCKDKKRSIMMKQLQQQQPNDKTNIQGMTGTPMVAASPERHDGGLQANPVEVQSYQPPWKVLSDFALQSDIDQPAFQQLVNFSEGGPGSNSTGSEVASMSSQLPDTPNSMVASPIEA
Put plainly: EMSA; ternary complex; EMSA: 20 mM Tris-HCl pH 7.5, 50 mM NaCl, 10 mM DTT, 1 mM EDTA, 5% glycerol, 200 ng dI/dC, 200 ng each protein in 20 ul, 4 C, 30 min; 8% PAGE, 1x TBE, 4 C. The note with it: protein: recombinant;recombinant, tags: His (C-terminal);His (C-terminal, pET-28a), copies: 1;1. In general terms: In EMSA bound probe runs differently from free probe, usually more slowly.

In data set [2] the target is T2, Pou4f2 (Brn3b);Isl1 (mouse;mouse, UniProt Q63934;P61372 1-411;1-349, |).
T2 sequence 1: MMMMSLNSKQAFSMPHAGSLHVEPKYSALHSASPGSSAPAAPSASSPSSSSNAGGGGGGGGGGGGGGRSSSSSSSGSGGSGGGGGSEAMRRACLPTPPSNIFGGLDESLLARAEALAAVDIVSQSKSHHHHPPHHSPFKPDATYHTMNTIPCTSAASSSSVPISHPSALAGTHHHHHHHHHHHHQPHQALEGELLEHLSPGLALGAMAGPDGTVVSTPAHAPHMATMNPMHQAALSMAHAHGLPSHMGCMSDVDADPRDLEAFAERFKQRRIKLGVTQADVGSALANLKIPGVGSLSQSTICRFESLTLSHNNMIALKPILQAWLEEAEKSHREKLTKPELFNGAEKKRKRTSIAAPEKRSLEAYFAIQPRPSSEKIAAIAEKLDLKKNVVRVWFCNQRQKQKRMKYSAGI
T2 sequence 2: T1 sequence 2
Description: EMSA; EMSA: 20 mM Tris-HCl pH 7.5, 50 mM NaCl, 10 mM DTT, 1 mM EDTA, 5% glycerol, 200 ng dI/dC, 200 ng each protein in 20 ul, 4 C, 30 min; 8% PAGE, 1x TBE, 4 C. The settings on record: protein: recombinant;recombinant; tags: His (C-terminal, pET-28a);His (C-terminal, pET-28a); copies: 1;1; (radiolabel, Klenow fill-in); 5' overhang 1 nt at both ends before fill-in.

In a further data set the target is T3, Pou4f2D4;Isl1 (mouse;mouse, UniProt Q63934;P61372 169-411;1-349, |).
T3 sequence 1: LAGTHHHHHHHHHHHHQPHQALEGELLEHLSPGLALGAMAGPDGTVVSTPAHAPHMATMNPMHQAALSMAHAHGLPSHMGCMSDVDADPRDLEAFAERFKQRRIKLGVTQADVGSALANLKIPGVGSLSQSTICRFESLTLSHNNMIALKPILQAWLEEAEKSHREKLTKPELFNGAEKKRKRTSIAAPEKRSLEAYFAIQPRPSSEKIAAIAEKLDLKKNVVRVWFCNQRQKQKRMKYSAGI
T3 sequence 2: T1 sequence 2
Put plainly: EMSA; ternary complex; EMSA: 20 mM Tris-HCl pH 7.5, 50 mM NaCl, 10 mM DTT, 1 mM EDTA, 5% glycerol, 200 ng dI/dC, 200 ng each protein in 20 ul, 4 C, 30 min; 8% PAGE, 1x TBE, 4 C. The note with it: protein: recombinant;recombinant; tags: His (C-terminal);His (C-terminal, pET-28a); copies: 1;1; (radiolabel, Klenow fill-in); 5' overhang 1 nt at both ends before fill-in.

The next data set deals with T4, Isl1D4;Pou4f2 (Brn3b) (mouse;mouse, UniProt P61372;Q63934 146-349;1-411, |).
T4 sequence 1: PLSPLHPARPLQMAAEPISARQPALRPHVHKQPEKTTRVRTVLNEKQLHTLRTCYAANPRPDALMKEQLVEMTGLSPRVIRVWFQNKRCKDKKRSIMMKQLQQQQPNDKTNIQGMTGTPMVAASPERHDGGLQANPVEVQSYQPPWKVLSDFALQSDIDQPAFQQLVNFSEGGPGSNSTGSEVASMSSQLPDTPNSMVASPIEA
T4 sequence 2: T2 sequence 1
Described as above. The settings on record: protein: recombinant;recombinant; tags: His (C-terminal);His (C-terminal, pET-28a); copies: 1;1; (radiolabel, Klenow fill-in); 5' overhang 1 nt at both ends before fill-in.

Data set [3] addresses T2, Pou4f2 (Brn3b);Isl1. Described as above. The settings on record: protein: recombinant;recombinant; tags: His (C-terminal, pET-28a);His (C-terminal, pET-28a); copies: 1;1; (radiolabel, Klenow fill-in); 5' overhang 1 nt at both ends before fill-in.
The target in another data set is T5, Isl1D5;Pou4f2 (Brn3b) (mouse;mouse, UniProt P61372;Q63934 74-349;1-411, |).
T5 sequence 1: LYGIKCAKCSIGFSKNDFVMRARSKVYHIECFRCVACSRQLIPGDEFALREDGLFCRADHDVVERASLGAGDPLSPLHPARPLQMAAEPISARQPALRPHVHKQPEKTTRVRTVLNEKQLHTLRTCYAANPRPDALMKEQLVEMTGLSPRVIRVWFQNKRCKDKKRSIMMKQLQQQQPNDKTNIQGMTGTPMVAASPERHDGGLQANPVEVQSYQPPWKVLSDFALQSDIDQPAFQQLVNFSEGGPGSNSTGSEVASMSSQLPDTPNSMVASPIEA
T5 sequence 2: T2 sequence 1
The data set is described as above. The note with it: protein: recombinant;recombinant; tags: His (C-terminal);His (C-terminal, pET-28a); copies: 1;1; (radiolabel, Klenow fill-in); 5' overhang 1 nt at both ends before fill-in.

A further data set deals with T6, Isl1D3;Pou4f2 (Brn3b) (mouse;mouse, UniProt P61372;Q63934 170-349;1-411, |).
T6 sequence 1: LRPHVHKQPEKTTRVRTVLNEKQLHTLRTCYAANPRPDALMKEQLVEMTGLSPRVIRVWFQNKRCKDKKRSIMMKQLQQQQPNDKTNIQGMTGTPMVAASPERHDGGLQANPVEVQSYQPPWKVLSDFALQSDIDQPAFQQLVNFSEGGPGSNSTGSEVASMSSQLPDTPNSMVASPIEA
T6 sequence 2: T2 sequence 1
Described as above. The note with it: protein: recombinant;recombinant; tags: His (C-terminal);His (C-terminal, pET-28a); copies: 1;1; (radiolabel, Klenow fill-in); 5' overhang 1 nt at both ends before fill-in.

Data set [4] addresses T1, Pou4f2D5;Isl1. Put plainly: EMSA; EMSA: 20 mM Tris-HCl pH 7.5, 50 mM NaCl, 10 mM DTT, 1 mM EDTA, 5% glycerol, 200 ng dI/dC, 200 ng each protein in 20 ul, 4 C, 30 min; 8% PAGE, 1x TBE, 4 C. The note with it: protein: recombinant;recombinant, tags: His (C-terminal);His (C-terminal, pET-28a), copies: 1;1.
[5] abbreviates: (radiolabel, Klenow fill-in), 5' overhang 1 nt at both ends before fill-in.

B1: EBF3(W) (dsDNA)
DNA 1: GTGCGTTAATATTTTAATTAATCGGGAAAA
DNA 2: TTTTCCCGATTAATTAAAATATTAACGCAC
B1: the binding result with Pou4f2D5;Isl1 [1] ((radiolabel, Klenow), blunt) is given as “binds”.

B2: SBRN3(M) (dsDNA)
DNA 1: GCACACGACCCAGCGCGTTGACAACCGGGCTG
DNA 2: GCAGCCCGGTTGTCAACGCGCTGGGTCGTGTG
On to B2, for which the binding result with Pou4f2 (Brn3b);Isl1 [2] was “no binding”.

B3: CBRN3(W) (dsDNA)
DNA 1: GATCTCTCCTGCATAATTAATTACCCCCGGAT
DNA 2: GATCCGGGGGTAATTAATTATGCAGGAGAGAT
As to B3, the binding result in the data set with Pou4f2D4;Isl1, in the data set with Pou4f2D5;Isl1 [1] (setting [5]), with Isl1D4;Pou4f2 (Brn3b), with Pou4f2 (Brn3b);Isl1 [3], in the data set with Isl1D5;Pou4f2 (Brn3b) and with Isl1D3;Pou4f2 (Brn3b) was “binds” each time.

B4: EBF3(M) (dsDNA)
DNA 1: GTGCGTTGCTATTTTCGTTGCTCGGGAAAA
DNA 2: TTTTCCCGAGCAACGAAAATAGCAACGCAC
As for B4, the binding result with Pou4f2D5;Isl1 [4] ((radiolabel, Klenow), blunt) is listed as “no binding”.

B5: SBRN3(W) (dsDNA)
DNA 1: GCACACGACCCAATGAATTAATAACCGGGCTG
DNA 2: GCAGCCCGGTTATTAATTCATTGGGTCGTGTG
Consider B5, for which the binding result with Pou4f2D4;Isl1, in the data set with Pou4f2D5;Isl1 [1] (setting [5]), with Isl1D4;Pou4f2 (Brn3b), with Pou4f2 (Brn3b);Isl1 [3], with Isl1D5;Pou4f2 (Brn3b) and with Isl1D3;Pou4f2 (Brn3b) was “binds” in each case.

B6: IRX6(M) (dsDNA)
DNA 1: TACTACTGCTTCGTTGCTTGCAAACATTTC
DNA 2: GGAAATGTTTGCAAGCAACGAAGCAGTAGTA
As to B6, the binding result with Pou4f2D5;Isl1 [4] ((radiolabel, Klenow fill-in), one end blunt, lower strand 5' overhang 1 nt before fill-in) is reported as “no binding”.

B7: IRX6(W) (dsDNA)
DNA 1: GTACTACTAATTAATTAATTGCAAACATTTC
DNA 2: GGAAATGTTTGCAATTAATTAATTAGTAGTA
For the molecule B7, the binding result with Pou4f2D5;Isl1 [1] (setting [5]) is “binds”.

B8: CBRN3(M) (dsDNA)
DNA 1: GATCTCTCCTGCGCGGTTGACTACCCCCGGAT
DNA 2: GATCCGGGGGTAGTCAACCGCGCAGGAGAGAT
As to B8, in the data set with Pou4f2 (Brn3b);Isl1 [2], the binding result is given as “no binding”.
